# Experimental data published in patent publication US7285654.
# Tested on: T1, GST-IκBβ (1-54)
# T1 sequence: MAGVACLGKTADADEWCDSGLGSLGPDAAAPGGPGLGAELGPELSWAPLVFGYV
substance,measurement,value
IKK signalsome (stimulus-inducible IκB kinase complex) immunopurified from TNFα-stimulated HeLa cells,phosphorylation of substrate (kinase assay),"the kinase phosphorylated GST-IκBβ (1-54), albeit with lower affinity"
